Ends that are not written are not given here.

One assay addresses T1, GAD (Saccharomyces cerevisiae, UniProt P04386).
T1 construct: expressed in transfected cells; host or cells: S. cerevisiae two-hybrid strain PJ69-4A
T1 sequence (P04386 768-881 limits assumed): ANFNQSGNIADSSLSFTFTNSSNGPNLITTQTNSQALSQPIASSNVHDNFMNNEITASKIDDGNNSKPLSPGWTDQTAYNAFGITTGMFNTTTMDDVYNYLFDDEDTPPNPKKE
Description: yeast two-hybrid assay against GAD alone. Format: cell-based. From the text:
(§1) The strains and plasmids for two-hybrid analysis were PJ69-4A, pGBD-C2, pGAD-C2 (James et al., 1996) and pACTII (CLONTECH® Inc.). The primer pair pB-SML1 5′ (SEQ ID NO: 11) and pGBD-SML1 3′ (SEQ ID NO: 13) (Table 4) was used to amplify the SML1 ORF. After digestion with BamHI and PstI, this PCR product was cloned into the BamHI-PstI sites of pGBD-C2 to construct plasmid pWJ728. Similarly, plasmid pWJ684 contains a BamHI fragment from the PCR product of the SML1 ORF generated using the primer pair pB-SML1 5′ and pB-SML1 3′ (SEQ ID NO: 12) (Table 4) and inserted at the BamHI site of pACTII. PCR fragments containing the RNR1 or the RNR2 ORF were generated by primer pairs RNR1-ORF 5′ (SEQ ID NO: 14) and RNR1 3′ (SEQ ID NO: 15) or RNR2-ORF 5′ (SEQ ID NO: 17) and RNR2 3′ (SEQ ID NO: 16) (Table 4). These fragments were cloned into the BamHI-PstI site of pGBD-C2 and pGAD-C2 to construct pWJ731 and pWJ745 or pWJ729 and pWJ746 respectively.
(§2) The GAL1-HIS3 reporter was assayed on SC-HIS-LEU-TRP medium plus 1-2 mM 3-aminotriazole. The GAL2-ADE2 reporter was assayed on SC-ADE-LEU-TRP medium.

The target of the next assay is T2, GAD-RNR2 (Saccharomyces cerevisiae, UniProt P09938).
T2 construct: expressed in transfected cells; host or cells: S. cerevisiae two-hybrid strain PJ69-4A
T2 sequence (P09938 1-399): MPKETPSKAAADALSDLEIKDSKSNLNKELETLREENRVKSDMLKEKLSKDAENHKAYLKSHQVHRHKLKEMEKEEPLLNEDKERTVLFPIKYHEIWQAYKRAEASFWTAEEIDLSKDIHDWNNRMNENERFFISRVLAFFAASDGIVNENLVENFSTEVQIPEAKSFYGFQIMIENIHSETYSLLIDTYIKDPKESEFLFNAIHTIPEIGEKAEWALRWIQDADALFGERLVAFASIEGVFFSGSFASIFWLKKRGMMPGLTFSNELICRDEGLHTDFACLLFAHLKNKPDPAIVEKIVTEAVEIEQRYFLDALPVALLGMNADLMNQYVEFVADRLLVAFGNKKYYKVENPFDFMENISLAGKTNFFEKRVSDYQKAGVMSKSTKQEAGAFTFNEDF
Description: yeast two-hybrid assay against GAD-RNR2. It is filed as cell-based. Also noted: key to HIS3 reporter / ADE2 reporter: + signifies growth on histidine-less and adenine-less media; +/− signifies constructs unable to grow on adenine-less medium but able to give rise to white colonies on YPD medium.
Excerpt: as §1, §2

In a further assay the target is T3, GAD-SML1 (Saccharomyces cerevisiae, UniProt Q04964).
T3 construct: expressed in transfected cells; host or cells: S. cerevisiae two-hybrid strain PJ69-4A
T3 sequence (Q04964 1-104): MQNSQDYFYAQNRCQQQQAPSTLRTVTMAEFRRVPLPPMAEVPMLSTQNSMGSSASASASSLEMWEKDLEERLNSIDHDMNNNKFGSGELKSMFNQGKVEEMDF
Description: yeast two-hybrid assay against GAD-SML1. It is filed as cell-based. Set-up: key to HIS3 reporter / ADE2 reporter: + signifies growth on histidine-less and adenine-less media; +/− signifies constructs unable to grow on adenine-less medium but able to give rise to white colonies on YPD medium.
Excerpt: as §1, §2

Assay [1] addresses GAD-Sml1 two-hybrid fusion (plasmid pWJ684, pACTII) (Saccharomyces cerevisiae (yeast)) (UniProt Q04964). Description: cell-based or functional assay.
For assay [2], the target named is T4, GAD-Sml1 two-hybrid fusion (plasmid pWJ684, pACTII) (Saccharomyces cerevisiae (yeast), UniProt Q04964 1-104).
T4 sequence: T3 sequence (Q04964 1-104)
Description: cell-based or functional assay.

Assay [3] has as its target T5, GAD-Rnr1 two-hybrid fusion (plasmid pWJ745) (yeast (Saccharomyces cerevisiae), UniProt P21524 1-888).
T5 sequence (looked up): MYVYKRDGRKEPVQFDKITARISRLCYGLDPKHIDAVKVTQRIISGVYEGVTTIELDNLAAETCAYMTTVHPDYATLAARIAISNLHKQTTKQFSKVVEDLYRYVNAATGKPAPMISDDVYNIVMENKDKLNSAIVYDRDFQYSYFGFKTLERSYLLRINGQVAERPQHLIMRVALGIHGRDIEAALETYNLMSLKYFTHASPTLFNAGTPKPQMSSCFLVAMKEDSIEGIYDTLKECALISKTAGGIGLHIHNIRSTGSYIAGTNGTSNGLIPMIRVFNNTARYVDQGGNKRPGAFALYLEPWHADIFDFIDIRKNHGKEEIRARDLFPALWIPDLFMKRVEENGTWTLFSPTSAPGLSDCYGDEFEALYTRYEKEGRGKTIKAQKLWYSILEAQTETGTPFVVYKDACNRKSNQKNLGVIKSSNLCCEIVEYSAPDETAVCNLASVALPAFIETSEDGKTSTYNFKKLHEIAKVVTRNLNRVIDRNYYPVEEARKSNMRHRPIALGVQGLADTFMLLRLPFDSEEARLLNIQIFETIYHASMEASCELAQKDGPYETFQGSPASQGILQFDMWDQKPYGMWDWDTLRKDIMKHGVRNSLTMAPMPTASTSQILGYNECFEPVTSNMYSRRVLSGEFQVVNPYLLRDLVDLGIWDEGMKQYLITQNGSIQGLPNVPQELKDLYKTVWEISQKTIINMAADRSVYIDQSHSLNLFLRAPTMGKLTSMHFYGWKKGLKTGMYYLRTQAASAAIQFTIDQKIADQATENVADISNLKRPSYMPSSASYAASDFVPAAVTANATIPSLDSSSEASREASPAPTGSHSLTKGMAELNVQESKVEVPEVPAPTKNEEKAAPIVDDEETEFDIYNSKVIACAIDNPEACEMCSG
Description: cell-based or functional assay.

For assay [4], the target named is T6, GAD (Gal4 activation domain alone, empty vector control) (UniProt P04386 768-881).
T6 sequence (looked up): T1 sequence (P04386 768-881 limits assumed)
Description: cell-based or functional assay.

In assay [5] the target is T7, Recombinant yeast Rnr1 protein (large subunit of ribonucleotide reductase) (yeast (Saccharomyces cerevisiae), UniProt P21524 1-888).
T7 sequence (looked up): T5 sequence (looked up)
Description: cell-based or functional assay.

The target in another assay is T8, GAD-RNR1 (Saccharomyces cerevisiae, UniProt P21524).
T8 construct: expressed in transfected cells; host or cells: S. cerevisiae two-hybrid strain PJ69-4A
T8 sequence (P21524 1-888): T5 sequence (looked up)
Description: yeast two-hybrid assay against GAD-RNR1. It is filed as cell-based. Also noted: key to HIS3 reporter / ADE2 reporter: + signifies growth on histidine-less and adenine-less media; +/− signifies constructs unable to grow on adenine-less medium but able to give rise to white colonies on YPD medium.
Excerpt: as §1, §2

[6] abbreviates: SC-HIS-LEU-TRP plus 3-aminotriazole.

Take “RNR2: GBD (Gal4 DNA binding domain) fusion of the RNR2 ORF in pGBD-C2, two-hybrid construct (GAFTFNEDF)”: the LacZ activity came to 1.4 ± 0.1 Miller Units with GAD, 2.3 ± 0.4 Miller Units with GAD-RNR2 and 0.9 ± 0.4 Miller Units with GAD-SML1. The ADE2 reporter result with GAD-RNR2 (SC-ADE-LEU-TRP) is given as “+/−”. Moreover, the HIS3 reporter entry in the assay with GAD-RNR2 (setting [6]) was “+”.

Regarding “GBD vector (Gal4 DNA binding domain alone, empty vector control) (from UniProt P04386 1-147)”, in assay [1], the two-hybrid LacZ activity worked out at 0.4 Miller Units.

B1: GBD-Rnr1 two-hybrid fusion (plasmid pWJ731) (other, UniProt P04386 1-147, looked up)
chain: MKLLSSIEQACDICRLKKLKCSKEKPKCAKCLKNNWECRYSPKTKRSPLTRAHLTEVESRLERLEQLFLLIFPREDLDMILKMDSLQDIKALLTGLFVQDNVNKDAVTDRLASVETDMPLTLRQHRISATSSSEESSNKGQRQLTVSMYVYKRDGRKEPVQFDKITARISRLCYGLDPKHIDAVKVTQRIISGVYEGVTTIELDNLAAETCAYMTTVHPDYATLAARIAISNLHKQTTKQFSKVVEDLYRYVNAATGKPAPMISDDVYNIVMENKDKLNSAIVYDRDFQYSYFGFKTLERSYLLRINGQVAERPQHLIMRVALGIHGRDIEAALETYNLMSLKYFTHASPTLFNAGTPKPQMSSCFLVAMKEDSIEGIYDTLKECALISKTAGGIGLHIHNIRSTGSYIAGTNGTSNGLIPMIRVFNNTARYVDQGGNKRPGAFALYLEPWHADIFDFIDIRKNHGKEEIRARDLFPALWIPDLFMKRVEENGTWTLFSPTSAPGLSDCYGDEFEALYTRYEKEGRGKTIKAQKLWYSILEAQTETGTPFVVYKDACNRKSNQKNLGVIKSSNLCCEIVEYSAPDETAVCNLASVALPAFIETSEDGKTSTYNFKKLHEIAKVVTRNLNRVIDRNYYPVEEARKSNMRHRPIALGVQGLADTFMLLRLPFDSEEARLLNIQIFETIYHASMEASCELAQKDGPYETFQGSPASQGILQFDMWDQKPYGMWDWDTLRKDIMKHGVRNSLTMAPMPTASTSQILGYNECFEPVTSNMYSRRVLSGEFQVVNPYLLRDLVDLGIWDEGMKQYLITQNGSIQGLPNVPQELKDLYKTVWEISQKTIINMAADRSVYIDQSHSLNLFLRAPTMGKLTSMHFYGWKKGLKTGMYYLRTQAASAAIQFTIDQKIADQATENVADISNLKRPSYMPSSASYAASDFVPAAVTANATIPSLDSSSEASREASPAPTGSHSLTKGMAELNVQESKVEVPEVPAPTKNEEKAAPIVDDEETEFDIYNSKVIACAIDNPEACEMCSG
As for B1, the entries for the “two-hybrid LacZ activity” value in assay [2], in [3] and in assay [4] were 85 Miller Units, 2.9 Miller Units and 0.8 Miller Units, respectively.

B2: N-acetylated nonapeptide corresponding to the last 9 amino acids of Rnr4p (peptide)
peptide: Ac-KEINFDDDF
Turning to B2, the “IC50, in vitro yeast RNR assay” value in [5] was 30 µM.

B3: N-acetylated nonapeptide corresponding to the last 9 amino acids of Sml1p (peptide)
peptide: Ac-QGKVEEMDF
With B3, the “IC50, in vitro yeast RNR assay” value in assay [5] is roughly 300 µM.

B4: RNR1: GBD (Gal4 DNA binding domain) fusion of the RNR1 ORF in pGBD-C2, two-hybrid construct (protein)
chain: T5 sequence (looked up)
For the molecule B4, the LacZ activity is 0.8 ± 0.2 Miller Units in the assay with GAD, 85 ± 1 Miller Units with GAD-SML1 and 2.9 ± 0.5 Miller Units with GAD-RNR1. Also, the ADE2 reporter result in the assay with GAD-SML1 (SC-ADE-LEU-TRP) was “+”; with GAD-RNR1 (SC-ADE-LEU-TRP), “+/−”. The HIS3 reporter entry in the assay with GAD-SML1 (setting [6]) and with GAD-RNR1 (setting [6]) was “+” throughout.

B5: N-acetylated nonapeptide corresponding to the last 9 amino acids of Rnr2p (peptide)
peptide: Ac-GAFTFNEDF
For B5, the “IC50, in vitro yeast RNR assay” value in [5] came to 44 µM.

Source of the values: patent US7125658B2, “Small protein that interacts with a ribonucleotide reductase subunit and uses thereof” (The Trustees of Columbia University in the City of New York, priority 1998, dated 2006).
